According to patent US20220288216A1 (STARPHARMA, published 2022):

Columns and labels:
[1] = biological target: T1, HER2 (human epidermal growth factor receptor 2) on cells (human, UniProt P04626 23-1255); test: flow cytometry (Cy5), MDA-MB-231/HER2 cells, 3.33 nM, 37 C, 24 h
T1 construct: whole, on cells; One molecule for HER2 on all HER2-positive human cell lines; also called ERBB2; HER2 WT

[2] = biological target: T1, HER2 (human epidermal growth factor …); test: flow cytometry (Cy5), SKOV-3 cells, 3.33 nM, 37 C, 24 h
[3] = biological target: T1, HER2 (human epidermal growth factor …); test: flow cytometry (Cy5), MDA-MB-231/HER2 cells, 0.5 h

Binder | cellular association value (legend says percent; value exceeds 100, unit unclear) [3] | further results
Nanobody-PEG2-TCO-MePhTz-PEG4-PEG24-CO[N(PN)2][Lys]8[(α-NH-Cy5)1(α-NH-Glu-VC-PAB-MMAE)7(ε-NH-COPEG1100)8], Compound 41 (VHH, C-terminal unnatural amino acid (# in the printed sequence; p-azido-phenylalanine) clicked to DBCO-PEG12-TCO and through it to the tetrazine G3 lysine dendrimer carrying Cy5, Glu-VC-PAB-MMAE and PEG1100, Anti-HER2 nanobody 2D3 conjugated to a G3 dendrimer; also called compound 41 (targeted); targeted dendrimer) VHH: EVQLVESGGSLVQPGGSLRLSCAASGFTFDDYAMSWVRQVPGKGLEWVSSINWSGTHTDYADSVKGRFTISRNNANNTLYLQMNSLKSEDTAVYYCAKNWRDAGTTWFEKSGSAGQGTQVTVSS | – | fold fluorescence against compound 36 (untargeted control) [1]: ~9 fold; fold fluorescence against compound 36 (untargeted control) [2]: ~16 fold
BHA[Lys]4[((α-NH-COPEG24NH-COPEG4(PhMeTz) TCO-PEG3NH-COPEG24NH-Glu-DBCO N3-Nanobody)1(α-Lys(α-NHCy5)(ε-NHDFO))1(α-NH2)2)(ε-NH-COPEG1000)4, G2, Compound 86 (VHH, unnatural amino acid (#; p-azido-phenylalanine) clicked to DBCO-Glu-NHPEG24CO-NHPEG3-TCO and through it to the tetrazine G2 BHA-lysine dendrimer carrying Cy5, DFO and PEG1000, Single-nanobody G2 conjugate; also called BHA-G2-PEG1000 + NB) VHH: EVQLVESGGSLVQPGGSLRLSCAASGFTFDDYAMSWVRQVPGKGLEWVSSINWSGTHTDYADSVKGRFTISRNNANNTLYLQMNSLKSEDTAVYYCAKNWRDAGTTWFEKSGSAGQGTQVTVSS | 190 | –
BHA[Lys]32[((α-NH-COPEG24NH-COPEG4(PhMeTz) TCO-PEG3NH-COPEG24NH-Glu-DBCO/N3-Nanobody)1-4(α-NHCy5)1(α-NH-COPEG9-Val-Ala-PAB-P-Trigger-NMeCO-CTX)22) (α-NH2)5-8 … (VHH, unnatural amino acid (# in the printed sequence; p-azido-phenylalanine) after the last nanobody residue clicked to DBCO-Glu-NHPEG24CO-NHPEG3-TCO and through it to the tetrazine G5 BHA-lysine dendrimer carrying Cy5, cabazitaxel and PEG1100, 1-4 nanobodies per dendrimer as printed; also called compound 78 (targeted); 78 (2D3, G5, PEG1000, CTX)) VHH: EVQLVESGGSLVQPGGSLRLSCAASGFTFDDYAMSWVRQVPGKGLEWVSSINWSGTHTDYADSVKGRFTISRNNANNTLYLQMNSLKSEDTAVYYCAKNWRDAGTTWFEKSGSAGQGTQVTVSS | – | fold fluorescence against compound 70 (untargeted control) [1]: ~340 fold; fold fluorescence against compound 70 (untargeted control) [2]: ~160 fold
BHA[Lys]16[((α-NH-COPEG24NH-COPEG4(PhMeTz) TCO-PEG3NH-COPEG24NH-Glu-DBCO/N3-Nanobody)1(α-Lys(α-NHCy5)(ε-NHDFO))1(α-NH2)14(ε-NH-COPEG1000)16], G4, Compound 90 (VHH, unnatural amino acid (#; p-azido-phenylalanine) clicked to DBCO-Glu-NHPEG24CO-NHPEG3-TCO and through it to the tetrazine G4 BHA-lysine dendrimer carrying Cy5, DFO and PEG1000, Single-nanobody G4 conjugate; also called single 2D3-dendrimer conjugate; MFI Single) VHH: EVQLVESGGSLVQPGGSLRLSCAASGFTFDDYAMSWVRQVPGKGLEWVSSINWSGTHTDYADSVKGRFTISRNNANNTLYLQMNSLKSEDTAVYYCAKNWRDAGTTWFEKSGSAGQGTQVTVSS | 157 | –
BHA[Lys]32[((α-NH-COPEG24NH-COPEG4(PhMeTz) TCO-PEG3NH-COPEG24NH-Glu-DBCO/N3-Nanobody)1(α-Lys(α-NHCy5)(ε-NHDFO))1(α-NH2)30(ε-NH-COPEG1100)32], G5, Compound 92 (VHH, unnatural amino acid (#; p-azido-phenylalanine) clicked to DBCO-Glu-NHPEG24CO-NHPEG3-TCO and through it to the tetrazine G5 BHA-lysine dendrimer carrying Cy5, DFO and PEG, Single-nanobody G5 conjugate; also called BHA-G5-PEG1000 + NB) VHH: EVQLVESGGSLVQPGGSLRLSCAASGFTFDDYAMSWVRQVPGKGLEWVSSINWSGTHTDYADSVKGRFTISRNNANNTLYLQMNSLKSEDTAVYYCAKNWRDAGTTWFEKSGSAGQGTQVTVSS | 165 | –
BHA[Lys]8[((α-NH-COPEG24NH-COPEG4(PhMeTz) TCO-PEG3NH-COPEG24NH-Glu-DBCO/N3-Nanobody)1(α-Lys(α-NHCy5)(ε-NHDFO))1(α-NH2)6)(ε-NH-COPEG1000)8], G3, Compound 89 (VHH, unnatural amino acid (#; p-azido-phenylalanine) clicked to DBCO-Glu-NHPEG24CO-NHPEG3-TCO and through it to the tetrazine G3 BHA-lysine dendrimer carrying Cy5, DFO and PEG1000, Single-nanobody G3 conjugate; also called BHA-G3-PEG1000 + NB) VHH: EVQLVESGGSLVQPGGSLRLSCAASGFTFDDYAMSWVRQVPGKGLEWVSSINWSGTHTDYADSVKGRFTISRNNANNTLYLQMNSLKSEDTAVYYCAKNWRDAGTTWFEKSGSAGQGTQVTVSS | 218 | –
